These results are taken from the supplement of paper PMC10126150.

± gives the standard deviation of the averaged measurements.
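Also: ATP exposure 15 min at 22 °C before imaging.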

This series relates to ATP. Description: switch fluorescence ratio, 500 uM ATP over buffer (Cy3 cluster intensity, sum of 5 cycles each) (fold (ratio)); higher = stronger signal-on switching upon ATP binding; sequences stand for … in TCGTCGGCAGCGTCAGATGTGTATAAGAGACAGTTTTTTTTTTTTTTTTTTTTTTTTT…TC. Particulars: aptamer strand: ATP DNA aptamer (quencher-CACCTGGGGGAGTATTGCGGAGGAAGG + anchor), 100 nM annealed; ATP concentration: 500 uM. In outline:
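Clusters carrying Cy3-labelled switching strands on a modified Illumina MiSeq flow-cell were annealed to 100 nM quencher-labelled ATP aptamer and imaged in selection buffer. They were imaged again after 15 min with 500 uM ATP at 22 °C, over five buffer/ATP cycles with NaOH stripping and re-annealing in between. For each cluster, the fluorescence ratio is the summed Cy3 intensity of the target cycles divided by that of the buffer cycles, averaged per switch-domain sequence. Clusters outside 100-1000 RFU were left out.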
Take GATATGTGTT: the switch fluorescence ratio came out at 1.001 ± 0.0024. For the sequence GGGTTCCTAT, the switch fluorescence ratio turned out to be 0.987 ± 0.013. For the sequence TGGGAGAAAG, the switch fluorescence ratio came out at 0.999 ± 0.024. For the sequence TAATTGT, the switch fluorescence ratio amounted to 0.976 ± 0.03. TATCTTTAAC: the switch fluorescence ratio stood at 1.03 ± 0.024. For TTAATGGCGG, the switch fluorescence ratio was 0.995 ± 0.02.

With TTTGTTATGT, the switch fluorescence ratio was found to be 0.988 ± 0.019.

Take GACTGTCGGC: the switch fluorescence ratio was 1.02 ± 0.024. Take GACGCGCGTA: the switch fluorescence ratio was determined as 1.01 ± 0.027. CATTTATCCT: the switch fluorescence ratio was found to be 1.07 ± 0.024. With GATGTAGGAA, the switch fluorescence ratio was 1.013 ± 0.0065. With TGCAGCTTGC the figure was 1.25 ± 0.24. Turning to ACTGAAGATT, the switch fluorescence ratio amounted to 1.0263 ± 0.00089.

TATTTTGTGG: the switch fluorescence ratio came out at 0.984 ± 0.026.

As for GGGAAAGCTG, the switch fluorescence ratio worked out at 0.956 ± 0.096.

Consider TTGTTGGCCG, for which the switch fluorescence ratio stood at 0.9637 ± 0.0078. As for TAACAAGGGT, the switch fluorescence ratio was determined as 1 ± 0.016. In the case of ACCTATCCGG, the switch fluorescence ratio was 1.03 ± 0.017. To GACGTAAGTT belongs 1.02 ± 0.018; to GGGAATTAAT, 1.04 ± 0.023; to TGGATATAGG, 1.03 ± 0.038. TGGTATCGGA: the switch fluorescence ratio amounted to 0.977 ± 0.021.

For AGTTACGGGC, the switch fluorescence ratio is 1.01 ± 0.017. In the case of GAAAGTAATT, the switch fluorescence ratio was determined as 0.996 ± 0.051. With GGTAAAGGCG the figure was 0.9621 ± 0.0048.

On to TAGGTTATTG, for which the switch fluorescence ratio came out at 0.995 ± 0.024. Consider ACGACTTTTG, for which the switch fluorescence ratio is 0.995 ± 0.042. TGCAATGATG: the switch fluorescence ratio came out at 1.04 ± 0.039. With CACTGGAGGG the figure was 0.9937 ± 0.0042; with AGTATTTTTT, 0.995 ± 0.01; with TCTGCACATT, 1.07 ± 0.025. To TAGGGGTGCC belongs 0.98 ± 0.034; to CAAAGGATAC, 1.2 ± 0.013.

For the sequence ATGTCAAGGC, the switch fluorescence ratio stood at 1.05 ± 0.052.

Take GTGGAGGGGG: the switch fluorescence ratio was 0.9841 ± 0.0047.

For ATTTTGTCCT, the switch fluorescence ratio was determined as 1.08 ± 0.11.

In the case of TTTAAGGTTT, the switch fluorescence ratio is 0.998 ± 0.013.

Take CTGTGTTTGG: the switch fluorescence ratio was 0.997 ± 0.038. Turning to AGGGGCGGGA, the switch fluorescence ratio worked out at 0.962 ± 0.041. Turning to GGCATTCATT, the switch fluorescence ratio was found to be 0.989 ± 0.033.

CGGTCCGGGT: the switch fluorescence ratio worked out at 0.99721 ± 0.00018. With TTTTAAAATT, the switch fluorescence ratio was 1 ± 0.035. Regarding AGGGGTCAGG, the switch fluorescence ratio turned out to be 1.022 ± 0.0055. As to TTTTCGGGCG, the switch fluorescence ratio is 0.944 ± 0.017.

TCGAATTTTT: the switch fluorescence ratio turned out to be 1.02 ± 0.07. Turning to ATTTTTCGGC, the switch fluorescence ratio was found to be 0.99 ± 0.02. Regarding GGGGAGTTGG, the switch fluorescence ratio worked out at 0.969 ± 0.025. In the case of TTTTTTTGTA, the switch fluorescence ratio was determined as 1.01 ± 0.042.

In the case of AAACATAAGC, the switch fluorescence ratio stood at 0.991 ± 0.038. With GTAATAGGTC, the switch fluorescence ratio came out at 1.013 ± 0.0088. For the sequence GTCGTAGCGA, the switch fluorescence ratio is 1.24 ± 0.016.

For the sequence TAATTCGTTA, the switch fluorescence ratio stood at 0.992 ± 0.037. With GGGGAGGGAG the figure was 1.0077 ± 0.00081; with GAGGTAGATG, 0.991 ± 0.0012. With GGGGCTTTCC the figure was 1.09 ± 0.052; with GGGTCCTGCG, 1.04 ± 0.019. In the case of CGGTGGGGGG, the switch fluorescence ratio is 1.04 ± 0.03. On to CTGAACTTTA, for which the switch fluorescence ratio turned out to be 1.04 ± 0.043. For GTGGGACTGT, the switch fluorescence ratio came to 1.015 ± 0.0021. In the case of CGTCTTGGTG, the switch fluorescence ratio turned out to be 0.999 ± 0.03.

Regarding GCCGCCAGGG, the switch fluorescence ratio was 1.26 ± 0.068. Consider CAAAGTGAAC, for which the switch fluorescence ratio was determined as 1.01 ± 0.017. With TGGGGTTATA, the switch fluorescence ratio turned out to be 1.02 ± 0.023. With TATGAGGTTC, the switch fluorescence ratio turned out to be 0.983 ± 0.1.

As to GGGTGAACAT, the switch fluorescence ratio was determined as 0.98659 ± 0.00029. Turning to TAACGGGATG, the switch fluorescence ratio amounted to 1 ± 0.017. For the sequence ATGCTGGTTA, the switch fluorescence ratio is 0.996 ± 0.016. Regarding CTCGATGTGG, the switch fluorescence ratio was found to be 0.985 ± 0.044. For ATGGCCGGCC, the switch fluorescence ratio is 1.01 ± 0.02. For TGACAAAGGG, the switch fluorescence ratio was found to be 0.988 ± 0.024. In the case of AATGCTGTTG, the switch fluorescence ratio came out at 0.991 ± 0.02. Regarding TTACGGTTGG, the switch fluorescence ratio amounted to 0.995 ± 0.025. As to TAAAATTGTA, the switch fluorescence ratio came out at 0.9917 ± 0.0035. To GGAATACTAG belongs 1.14 ± 0.053; to TTTTATCCCC, 1.08 ± 0.1. Consider GTGAAAACGT, for which the switch fluorescence ratio was found to be 1.04 ± 0.035. With ACTTAAAAGC the figure was 1 ± 0.019. Consider TACTTATTGT, for which the switch fluorescence ratio stood at 0.9755 ± 0.0083. Take TTTTCGGTAG: the switch fluorescence ratio was 0.989 ± 0.027. Turning to TTTTTGTT, the switch fluorescence ratio was 0.99 ± 0.0068. On to TAACAGGTTT, for which the switch fluorescence ratio worked out at 0.989 ± 0.016. For the sequence GCTGTGGGCA, the switch fluorescence ratio was found to be 0.977 ± 0.02.

CGTATAGTTA: the switch fluorescence ratio is 0.987 ± 0.022. As for ATGGGCTTGC, the switch fluorescence ratio stood at 0.994 ± 0.083. As to TTGTTAGTTA, the switch fluorescence ratio was found to be 1.01 ± 0.015.

As to GGGGTATGTG, the switch fluorescence ratio amounted to 0.992 ± 0.039. As to CATTTTTTTT, the switch fluorescence ratio is 0.995 ± 0.02.

On to CAATTGGACA, for which the switch fluorescence ratio was determined as 0.982 ± 0.01. ATTAAATGAT: the switch fluorescence ratio was determined as 0.9574 ± 0.002. GAGTAGTGGG: the switch fluorescence ratio amounted to 0.982 ± 0.037.

Consider GGGGGTAGTG, for which the switch fluorescence ratio was 0.9946 ± 0.0063. Consider CCGGGTGGGT, for which the switch fluorescence ratio is 1.11 ± 0.13. On to GGATGGTGTT, for which the switch fluorescence ratio was determined as 0.958 ± 0.026. As to TAATTTTGTT, the switch fluorescence ratio was determined as 1.02 ± 0.019. Turning to GTTAGTGGGC, the switch fluorescence ratio turned out to be 0.971 ± 0.037. For GTTAGGTCAG, the switch fluorescence ratio was 0.997 ± 0.028. Turning to GCTATATGTG, the switch fluorescence ratio came to 0.98 ± 0.069. For GTGGCAGGTG, the switch fluorescence ratio stood at 2.53 ± 0.053. To GATGGTAGCT belongs 1.04 ± 0.074; to GAGGTAGTGG, 0.968 ± 0.027.

With GGAATGTTGG, the switch fluorescence ratio came out at 0.991 ± 0.032.

Consider TGTGAAACGG, for which the switch fluorescence ratio was determined as 0.9916 ± 0.0072.

For the sequence ATGATTGCGT, the switch fluorescence ratio came out at 0.991 ± 0.018. Regarding AGGCGATCGG, the switch fluorescence ratio worked out at 0.99 ± 0.023.

With TTGATCTCTT, the switch fluorescence ratio was 1.01 ± 0.026. For TTTGTTCTTT, the switch fluorescence ratio worked out at 1.02 ± 0.081.

As to ACATAATGTG, the switch fluorescence ratio is 1.06 ± 0.013. As for TTGAAGTAGC, the switch fluorescence ratio amounted to 1.01 ± 0.044. TTTGGCTTGG: the switch fluorescence ratio is 0.992 ± 0.031. Take CAACAGGGGG: the switch fluorescence ratio came out at 1.06 ± 0.056.

Turning to TACCAGGGTA, the switch fluorescence ratio was found to be 1.05 ± 0.047. Consider CCGAACGTTT, for which the switch fluorescence ratio is 2.31 ± 0.47.

Turning to CGTTAGGGGG, the switch fluorescence ratio came out at 1.02 ± 0.041. Consider CAAAGCACCG, for which the switch fluorescence ratio turned out to be 1.031 ± 0.0063. With ATGGTCGGTC, the switch fluorescence ratio came to 0.989 ± 0.036.

As for AACTGTGGAT, the switch fluorescence ratio is 0.999 ± 0.034. On to ATGTGTAAAC, for which the switch fluorescence ratio was determined as 1.01 ± 0.038. As to TTAGAGGCCC, the switch fluorescence ratio was 1.01 ± 0.032. To ATGTAGGGGA belongs 1.0051 ± 0.001. In the case of ATTGTAGTTT, the switch fluorescence ratio turned out to be 1 ± 0.066.
